From PMC7684300 (Cell Discovery, 2020)

T1: human ORC1 (origin recognition complex subunit 1), full-length (human, UniProt Q13415 1-861)
T1 construct: Origin recognition complex subunit 1, human, full-length codon-optimized synthetic gene; No removal of the tag is described; HsORC1–5 was eluted from Streptactin beads with desthiobiotin; Samples for cryo-EM were mildly cross-linked with glutaraldehyde (GraFix); also called HsORC1; source: Sf21 insect cells, MultiBac baculovirus, co-overexpressed with the other ORC subunits; not shown: twin-strep …
T1 sequence (looked up): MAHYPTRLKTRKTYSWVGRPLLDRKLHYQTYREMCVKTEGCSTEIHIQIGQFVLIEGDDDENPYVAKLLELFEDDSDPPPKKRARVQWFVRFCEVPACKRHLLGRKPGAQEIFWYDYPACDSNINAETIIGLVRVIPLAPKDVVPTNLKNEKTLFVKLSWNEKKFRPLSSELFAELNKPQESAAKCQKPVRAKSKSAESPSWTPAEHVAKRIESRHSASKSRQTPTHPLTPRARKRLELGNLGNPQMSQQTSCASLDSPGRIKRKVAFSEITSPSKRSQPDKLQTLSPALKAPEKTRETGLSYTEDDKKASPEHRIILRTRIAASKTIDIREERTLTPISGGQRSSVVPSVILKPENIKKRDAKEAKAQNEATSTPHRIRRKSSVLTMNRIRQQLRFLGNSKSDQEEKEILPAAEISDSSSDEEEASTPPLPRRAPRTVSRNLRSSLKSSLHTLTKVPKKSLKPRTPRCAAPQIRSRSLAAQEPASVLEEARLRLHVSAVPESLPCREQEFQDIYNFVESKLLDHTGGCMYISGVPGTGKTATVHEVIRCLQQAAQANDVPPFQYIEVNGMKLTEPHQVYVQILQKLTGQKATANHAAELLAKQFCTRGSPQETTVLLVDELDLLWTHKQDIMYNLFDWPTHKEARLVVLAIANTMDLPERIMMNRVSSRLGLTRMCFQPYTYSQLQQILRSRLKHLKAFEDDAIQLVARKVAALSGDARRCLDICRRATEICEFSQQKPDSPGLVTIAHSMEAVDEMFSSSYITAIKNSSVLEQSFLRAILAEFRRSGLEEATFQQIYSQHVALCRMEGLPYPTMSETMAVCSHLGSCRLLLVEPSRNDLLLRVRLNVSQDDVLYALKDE


Assays:
[1] = target: T1, human ORC1 (origin recognition complex …); assay: co-IP; anti-Flag immunoprecipitation (M2-flag affinity beads, eluted with 0.5 mg/mL flag peptide) of N-terminal Flag-tagged ORC2 from soluble lysate of insect cells co-overexpressing ORC1 to ORC6; lysis buffer A: 25 mM HEPES-KOH pH 7.6, 0.2 M KCl, 5 mM ATP, 10% glycerol, 0.05% NP-40; details: partners not purified
[2] = target: T1, human ORC1 (origin recognition complex …); assay: cryo-EM structure; HsORC1–5 purified by two steps (anti-HA beads, Streptactin beads) after high-salt treatment, mild fixation by GraFix; map at 4.4 Å, State I 5.0 Å, State II 4.8 Å, four subgroups by local classification on ORC1-AAA+; details: both partners purified

Binder | binding result [1] | binding result [2]
human ORC2 (origin recognition complex subunit 2), full-length (natural protein, UniProt Q13416 1-577, looked up, Origin recognition complex subunit 2, human, full-length codon-optimized synthetic gene; Samples for cryo-EM were mildly cross-linked with glutaraldehyde (GraFix); also called HsORC2; source: Sf21 insect cells, MultiBac baculovirus, co-overexpressed with the other ORC subunits; anti-HA then Streptactin beads for HsORC1–5); not shown: 3x Flag, N-terminal, kept) MSKPELKEDKMLEVHFVGDDDVLNHILDREGGAKLKKERAQLLVNPKKIIKKPEYDLEEDDQEVLKDQNYVEIMGRDVQESLKNGSATGGGNKVYSFQNRKHSEKMAKLASELAKTPQKSVSFSLKNDPEITINVPQSSKGHSASDKVQPKNNDKSEFLSTAPRSLRKRLIVPRSHSDSESEYSASNSEDDEGVAQEHEEDTNAVIFSQKIQAQNRVVSAPVGKETPSKRMKRDKTSDLVEEYFEAHSSSKVLTSDRTLQKLKRAKLDQQTLRNLLSKVSPSFSAELKQLNQQYEKLFHKWMLQLHLGFNIVLYGLGSKRDLLERFRTTMLQDSIHVVINGFFPGISVKSVLNSITEEVLDHMGTFRSILDQLDWIVNKFKEDSSLELFLLIHNLDSQMLRGEKSQQIIGQLSSLHNIYLIASIDHLNAPLMWDHAKQSLFNWLWYETTTYSPYTEETSYENSLLVKQSGSLPLSSLTHVLRSLTPNARGIFRLLIKYQLDNQDNPSYIGLSFQDFYQQCREAFLVNSDLTLRAQLTEFRDHKLIRTKKGTDGVEYLLIPVDNGTLTDFLEKEEEEA | binds | –
human ORC5 (origin recognition complex subunit 5), full-length (natural protein, UniProt O43913 1-435, looked up, Origin recognition complex subunit 5, human, full-length codon-optimized synthetic gene; Samples for cryo-EM were mildly cross-linked with glutaraldehyde (GraFix); also called HsORC5; source: Sf21 insect cells, MultiBac baculovirus, co-overexpressed with the other ORC subunits; not shown: HA, C-terminal, kept) MPHLENVVLCRESQVSILQSLFGERHHFSFPSIFIYGHTASGKTYVTQTLLKTLELPHVFVNCVECFTLRLLLEQILNKLNHLSSSEDGCSTEITCETFNDFVRLFKQVTTAENLKDQTVYIVLDKAEYLRDMEANLLPGFLRLQELADRNVTVLFLSEIVWEKFRPNTGCFEPFVLYFPDYSIGNLQKILSHDHPPEYSADFYAAYINILLGVFYTVCRDLKELRHLAVLNFPKYCEPVVKGEASERDTRKLWRNIEPHLKKAMQTVYLREISSSQWEKLQKDDTDPGQLKGLSAHTHVELPYYSKFILIAAYLASYNPARTDKRFFLKHHGKIKKTNFLKKHEKTSNHLLGPKPFPLDRLLAILYSIVDSRVAPTANIFSQITSLVTLQLLTLVGHDDQLDGPKYKCTVSLDFIRAIARTVNFDIIKYLYDFL | – | binds
human ORC4 (origin recognition complex subunit 4), full-length (natural protein, UniProt O43929 1-436, looked up, Origin recognition complex subunit 4, human, full-length codon-optimized synthetic gene; No tag is named for this subunit; Samples for cryo-EM were mildly cross-linked with glutaraldehyde (GraFix); also called HsORC4; source: Sf21 insect cells, MultiBac baculovirus, co-overexpressed with the other ORC subunits) MSSRKSKSNSLIHTECLSQVQRILRERFCRQSPHSNLFGVQVQYKHLSELLKRTALHGESNSVLIIGPRGSGKTMLINHALKELMEIEEVSENVLQVHLNGLLQINDKIALKEITRQLNLENVVGDKVFGSFAENLSFLLEALKKGDRTSSCPVIFILDEFDLFAHHKNQTLLYNLFDISQSAQTPIAVIGLTCRLDILELLEKRVKSRFSHRQIHLMNSFGFPQYVKIFKEQLSLPAEFPDKVFAEKWNENVQYLSEDRSVQEVLQKHFNISKNLRSLHMLLMLALNRVTASHPFMTAVDLMEASQLCSMDSKANIVHGLSVLEICLIIAMKHLNDIYEEEPFNFQMVYNEFQKFVQRKAHSVYNFEKPVVMKAFEHLQQLELIKPMERTSGNSQREYQLMKLLLDNTQIMNALQKYPNCPTDVRQWATSSLSWL | – | binds
